Literature values in paper PMC7308888, “Development of a cell-free split-luciferase biochemical assay as a tool for screening for inhibitors of challenging protein-protein interaction targets” (Wellcome Open Research, 2020).

Molecular target: RAF (Homo sapiens) (UniProt P04049)

Kd: 0.02 µM
Substance: RAS (from UniProt P01116)
